From publication PMC6555819, “Comprehensive study of nuclear receptor DNA binding provides a revised framework for understanding receptor specificity”
Residue numbers refer to the chain shown, from its start.

Assays:
[1] = biological target: RXRa (Homo sapiens, UniProt P19793); experiment: no ligand; PBM; 180 nM; PBS pH 7.4, 2% milk, 0.02% Triton X-100, 1 mM DTT, BSA, 0.4 mg/ml salmon testes DNA; conditions: tags: His cleaved; chain copies: 2; label: surface-attached array probe
[2] = biological target: PPARg:RXRa (Homo sapiens, UniProt P37231;P19793 full;full); experiment: no ligand; PBM; 180 nM : 90 nM RXRa; PBS pH 7.4, 2% milk, 0.02% Triton X-100, 1 mM DTT, BSA, 0.4 mg/ml salmon testes DNA; conditions: tags: His kept;His cleaved; copies: 1;1; label: surface-attached array probe
[3] = biological target: LXRa:RXRa (Homo sapiens, UniProt Q13133;P19793 full;full); experiment: no ligand; PBM; 270 nM : 90 nM RXRa; PBS pH 7.4, 2% milk, 0.02% Triton X-100, 1 mM DTT, BSA, 0.4 mg/ml salmon testes DNA; conditions: tags: His kept;His cleaved; copies: 1;1; label: surface-attached array probe
Summary of the method: (§1)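 Binding z-scores were set against random background probes. The data came from custom Agilent 4×180K protein-binding microarrays carrying double-stranded probes with 34-nt variable regions, incubated 1 h with ligand-free nuclear receptor dimers. Partner-specific antibodies detected binding, and scanned fluorescence was regression-normalized.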

[4] = biological target: PXR:RXRa (Homo sapiens, UniProt O75469;P19793 full;full); experiment: as above; conditions: tags: His kept;His cleaved; copies: 1;1; label: surface-attached array probe
Summary of the method: as §1

[5] = biological target: PPARa:RXRa (Homo sapiens, UniProt Q07869;P19793 full;full); experiment: as above; conditions: tags: GST kept;His cleaved; copies: 1;1; label: surface-attached array probe
Summary of the method: as §1

[6] = biological target: FXR:RXRa (Homo sapiens, UniProt Q96RI1;P19793 full;full); experiment: as above; conditions: tags: His kept;His cleaved; copies: 1;1; label: surface-attached array probe
Summary of the method: as §1

[7] = biological target: RARb:RXRa (Homo sapiens, UniProt P10826;P19793 full;full); experiment: as above; conditions: tags: His kept;His cleaved; copies: 1;1; label: surface-attached array probe
Summary of the method: as §1

[8] = biological target: RARa:RXRa (Homo sapiens, UniProt P10276;P19793 full;full); experiment: as above; conditions: tags: His kept;His cleaved; copies: 1;1; label: surface-attached array probe
Summary of the method: as §1

[9] = biological target: RARg:RXRa (Homo sapiens, UniProt P13631;P19793 full;full); experiment: as above; conditions: tags: His kept;His cleaved; copies: 1;1; label: surface-attached array probe
Summary of the method: as §1

[10] = biological target: VDR:RXRa (Homo sapiens, UniProt P11473;P19793 full;full); experiment: as above; conditions: tags: His kept;His cleaved; copies: 1;1; label: surface-attached array probe
Summary of the method: as §1

[11] = biological target: LXRb:RXRa (Homo sapiens, UniProt P55055;P19793 full;full); experiment: as above; conditions: tags: His kept;His cleaved; copies: 1;1; label: surface-attached array probe
Summary of the method: as §1

[12] = biological target: THRa:RXRa (Homo sapiens, UniProt P10827;P19793 full;full); experiment: no ligand; PBM; 90 nM : 90 nM RXRa; PBS pH 7.4, 2% milk, 0.02% Triton X-100, 1 mM DTT, BSA, 0.4 mg/ml salmon testes DNA; conditions: tags: His kept;His cleaved; copies: 1;1; label: surface-attached array probe

Sequence of FXR:RXRa (Q96RI1 whole entry, chain 1 of 2): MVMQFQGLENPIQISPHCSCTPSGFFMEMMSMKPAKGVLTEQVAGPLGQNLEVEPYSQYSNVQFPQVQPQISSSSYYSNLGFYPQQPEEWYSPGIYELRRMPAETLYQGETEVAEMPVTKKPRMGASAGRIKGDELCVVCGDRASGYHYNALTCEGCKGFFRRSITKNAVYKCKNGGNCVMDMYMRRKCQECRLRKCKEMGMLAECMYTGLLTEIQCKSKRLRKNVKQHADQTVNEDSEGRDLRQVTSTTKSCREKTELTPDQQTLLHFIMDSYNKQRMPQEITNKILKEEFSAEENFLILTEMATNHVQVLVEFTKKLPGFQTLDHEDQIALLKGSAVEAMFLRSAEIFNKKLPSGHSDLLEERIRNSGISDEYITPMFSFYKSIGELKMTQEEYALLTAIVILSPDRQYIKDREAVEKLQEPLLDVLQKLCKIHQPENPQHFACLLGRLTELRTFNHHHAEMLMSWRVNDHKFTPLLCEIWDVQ
Sequence of FXR:RXRa (P19793 whole entry, chain 2 of 2): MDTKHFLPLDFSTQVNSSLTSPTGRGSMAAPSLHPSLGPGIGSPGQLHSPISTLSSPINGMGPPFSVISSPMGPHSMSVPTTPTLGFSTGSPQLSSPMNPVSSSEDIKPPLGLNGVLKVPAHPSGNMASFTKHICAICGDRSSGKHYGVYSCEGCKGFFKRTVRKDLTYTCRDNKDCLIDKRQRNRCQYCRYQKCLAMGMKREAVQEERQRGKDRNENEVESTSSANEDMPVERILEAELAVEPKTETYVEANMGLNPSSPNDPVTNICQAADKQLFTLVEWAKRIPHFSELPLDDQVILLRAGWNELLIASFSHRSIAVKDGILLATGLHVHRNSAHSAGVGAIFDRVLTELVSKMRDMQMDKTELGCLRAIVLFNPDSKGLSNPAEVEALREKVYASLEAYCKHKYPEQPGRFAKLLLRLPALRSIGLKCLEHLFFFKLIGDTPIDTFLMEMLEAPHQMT
Sequence of PPARa:RXRa (Q07869 whole entry, chain 1 of 2): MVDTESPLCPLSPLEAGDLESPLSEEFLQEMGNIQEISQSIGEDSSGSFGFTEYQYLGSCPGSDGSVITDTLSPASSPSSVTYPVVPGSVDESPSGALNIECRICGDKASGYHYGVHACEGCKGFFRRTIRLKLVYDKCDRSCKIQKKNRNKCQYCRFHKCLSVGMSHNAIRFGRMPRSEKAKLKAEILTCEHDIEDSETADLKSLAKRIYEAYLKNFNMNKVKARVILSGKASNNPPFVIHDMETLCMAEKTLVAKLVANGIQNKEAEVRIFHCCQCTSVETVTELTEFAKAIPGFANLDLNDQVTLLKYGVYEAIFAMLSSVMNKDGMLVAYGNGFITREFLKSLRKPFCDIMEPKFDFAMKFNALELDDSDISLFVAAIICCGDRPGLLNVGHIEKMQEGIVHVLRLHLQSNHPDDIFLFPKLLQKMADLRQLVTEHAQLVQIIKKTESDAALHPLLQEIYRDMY
Sequence of PPARa:RXRa (P19793 whole entry, chain 2 of 2): as the sequence (P19793 whole entry, chain 2 of 2) above
Sequence of PXR:RXRa (O75469 whole entry, chain 1 of 2): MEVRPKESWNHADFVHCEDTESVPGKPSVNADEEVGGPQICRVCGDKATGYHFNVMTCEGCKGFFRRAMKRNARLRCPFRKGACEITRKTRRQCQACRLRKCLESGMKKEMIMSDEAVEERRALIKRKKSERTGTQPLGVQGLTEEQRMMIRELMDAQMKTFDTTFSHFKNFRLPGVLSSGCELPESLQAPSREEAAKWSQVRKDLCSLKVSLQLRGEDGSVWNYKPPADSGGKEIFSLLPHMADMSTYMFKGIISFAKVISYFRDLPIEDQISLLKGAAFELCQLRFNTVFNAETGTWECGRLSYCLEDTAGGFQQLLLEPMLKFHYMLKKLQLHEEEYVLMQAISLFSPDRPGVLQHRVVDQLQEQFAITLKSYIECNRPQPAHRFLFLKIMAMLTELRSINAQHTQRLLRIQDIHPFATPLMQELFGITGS
Sequence of PXR:RXRa (P19793 whole entry, chain 2 of 2): as the sequence (P19793 whole entry, chain 2 of 2) above
Sequence of VDR:RXRa (P11473 whole entry, chain 1 of 2): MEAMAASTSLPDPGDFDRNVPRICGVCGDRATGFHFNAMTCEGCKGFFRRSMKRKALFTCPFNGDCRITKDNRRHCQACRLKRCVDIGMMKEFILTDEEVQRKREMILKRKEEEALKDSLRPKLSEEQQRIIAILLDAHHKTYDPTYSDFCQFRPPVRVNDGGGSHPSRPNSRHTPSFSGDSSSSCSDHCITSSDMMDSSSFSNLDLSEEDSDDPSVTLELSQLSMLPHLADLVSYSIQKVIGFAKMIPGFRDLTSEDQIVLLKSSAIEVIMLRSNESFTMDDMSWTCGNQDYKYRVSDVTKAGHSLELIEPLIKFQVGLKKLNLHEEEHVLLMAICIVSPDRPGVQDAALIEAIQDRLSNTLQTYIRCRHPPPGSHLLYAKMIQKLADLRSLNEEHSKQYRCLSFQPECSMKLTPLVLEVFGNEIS
Sequence of VDR:RXRa (P19793 whole entry, chain 2 of 2): as the sequence (P19793 whole entry, chain 2 of 2) above
Sequence of RARg:RXRa (P13631 whole entry, chain 1 of 2): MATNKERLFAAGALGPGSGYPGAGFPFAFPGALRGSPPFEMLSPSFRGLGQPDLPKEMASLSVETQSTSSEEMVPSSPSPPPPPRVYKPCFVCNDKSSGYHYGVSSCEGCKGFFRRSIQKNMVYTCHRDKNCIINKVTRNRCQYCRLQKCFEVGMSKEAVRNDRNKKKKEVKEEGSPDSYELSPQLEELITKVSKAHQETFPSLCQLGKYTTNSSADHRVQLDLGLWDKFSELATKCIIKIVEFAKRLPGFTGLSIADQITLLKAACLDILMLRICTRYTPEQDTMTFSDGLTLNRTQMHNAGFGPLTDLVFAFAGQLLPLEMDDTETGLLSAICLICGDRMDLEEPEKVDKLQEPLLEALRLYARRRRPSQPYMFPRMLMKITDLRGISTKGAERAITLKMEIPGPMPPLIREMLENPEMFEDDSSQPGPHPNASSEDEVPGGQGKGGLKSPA
Sequence of RARg:RXRa (P19793 whole entry, chain 2 of 2): as the sequence (P19793 whole entry, chain 2 of 2) above

B1: NRC3_wobSeed26_DR1_T9A_o1 (dsDNA)
DNA 1: GCTCTAGTAGGTCAAAGGTCACACACTCGAAATGCGGCGATTGACAGCGTAGAATGAAGG
DNA 2: CCTTCATTCTACGCTGTCAATCGCCGCATTTCGAGTGTGTGACCTTTGACCTACTAGAGC
Question: B1 was tested. Which binding signal [1] did it give?
Answer: 10.5 PBM z-score against 500 random probes

Question: And the binding signal [2]?
Answer: 14.4 PBM z-score against 500 random probes

Question: And the binding signal [3]?
Answer: 7.19 PBM z-score against 500 random probes

Question: What about the binding signal [4] of the same binder?
Answer: 7.41 PBM z-score against 500 random probes

Question: And the binding signal [5]?
Answer: 7.46 PBM z-score against 500 random probes

Question: What about the binding signal [6] of the same binder?
Answer: 8.25 PBM z-score against 500 random probes

Question: And the binding signal [7]?
Answer: 5.79 PBM z-score against 500 random probes

Question: What about the binding signal [8] of the same binder?
Answer: 9.28 PBM z-score against 500 random probes

Question: And the binding signal [9]?
Answer: 8.88 PBM z-score against 500 random probes

Question: And the binding signal [10]?
Answer: 6.79 PBM z-score against 500 random probes

Question: What about the binding signal [11] of the same binder?
Answer: 6.9 PBM z-score against 500 random probes

B2: NRC3_wobSeed26_DR1_T9G_o1 (dsDNA)
DNA 1: B1 DNA 1 with A9G
DNA 2: B1 DNA 2 with T52C
Question: How did the binding signal [1] turn out when B2 was run?
Answer: 10.2 PBM z-score against 500 random probes

Question: What about the binding signal [2] of the same binder?
Answer: 13.8 PBM z-score against 500 random probes

Question: What about the binding signal [3] of the same binder?
Answer: 6.72 PBM z-score against 500 random probes

Question: And the binding signal [4]?
Answer: 6.94 PBM z-score against 500 random probes

Question: What about the binding signal [5] of the same binder?
Answer: 7.42 PBM z-score against 500 random probes

Question: What about the binding signal [7] of the same binder?
Answer: 5.62 PBM z-score against 500 random probes

Question: What about the binding signal [8] of the same binder?
Answer: 8.89 PBM z-score against 500 random probes

Question: And the binding signal [9]?
Answer: 8.6 PBM z-score against 500 random probes

Question: What about the binding signal [10] of the same binder?
Answer: 7 PBM z-score against 500 random probes

Question: What about the binding signal [11] of the same binder?
Answer: 6.79 PBM z-score against 500 random probes

B3: NRC3_wobSeed28_DR1_C12T_o1 (dsDNA)
DNA 1: GCCCTACTGGGTCAAAGGTCATTGATTCCAATGCTCGCGATTGACAGCGTAGAATGAAGG
DNA 2: CCTTCATTCTACGCTGTCAATCGCGAGCATTGGAATCAATGACCTTTGACCCAGTAGGGC
Question: What does the source list for B3?
Answer: binding signal [1]: 9.56 PBM z-score against 500 random probes; binding signal [2]: 13.5 PBM z-score against 500 random probes; binding signal [3]: 6.6 PBM z-score against 500 random probes; binding signal [4]: 7.26 PBM z-score against 500 random probes; binding signal [5]: 7.41 PBM z-score against 500 random probes; binding signal [7]: 5.54 PBM z-score against 500 random probes; binding signal [8]: 8.75 PBM z-score against 500 random probes; binding signal [9]: 8.01 PBM z-score against 500 random probes; binding signal [10]: 6.8 PBM z-score against 500 random probes; binding signal [11]: 6.34 PBM z-score against 500 random probes

B4: NRC3_wobSeed53_DR2_C8G_o1 (dsDNA)
DNA 1: GCCCTTAGGGGTCACGAGGTTATAGCACGACGAGCGGCGATTGACAGCGTAGAATGAAGG
DNA 2: CCTTCATTCTACGCTGTCAATCGCCGCTCGTCGTGCTATAACCTCGTGACCCCTAAGGGC
Question: Which results are given for B4?
Answer: binding signal [1]: 10.1 PBM z-score against 500 random probes; binding signal [2]: 10.3 PBM z-score against 500 random probes; binding signal [3]: 7.02 PBM z-score against 500 random probes; binding signal [4]: 6.73 PBM z-score against 500 random probes; binding signal [5]: 7.21 PBM z-score against 500 random probes; binding signal [6]: 8.88 PBM z-score against 500 random probes; binding signal [7]: 5.93 PBM z-score against 500 random probes; binding signal [8]: 8.32 PBM z-score against 500 random probes; binding signal [9]: 8.51 PBM z-score against 500 random probes; binding signal [10]: 7.15 PBM z-score against 500 random probes; binding signal [11]: 6.15 PBM z-score against 500 random probes

B5: NRC3_wobSeed42_DR1_A8G_o1 (dsDNA)
DNA 1: GCTATACGGGGTCAAAGGCCAGAGTACGAATGTCGAGCGATTGACAGCGTAGAATGAAGG
DNA 2: CCTTCATTCTACGCTGTCAATCGCTCGACATTCGTACTCTGGCCTTTGACCCCGTATAGC
Question: How did the binding signal [1] turn out when B5 was run?
Answer: 9.41 PBM z-score against 500 random probes

Question: What about the binding signal [2] of the same binder?
Answer: 10.7 PBM z-score against 500 random probes

Question: What about the binding signal [3] of the same binder?
Answer: 7.28 PBM z-score against 500 random probes

Question: And the binding signal [4]?
Answer: 6.54 PBM z-score against 500 random probes

Question: What about the binding signal [5] of the same binder?
Answer: 7.07 PBM z-score against 500 random probes

Question: What about the binding signal [6] of the same binder?
Answer: 8.52 PBM z-score against 500 random probes

Question: And the binding signal [8]?
Answer: 7.79 PBM z-score against 500 random probes

Question: And the binding signal [9]?
Answer: 7.59 PBM z-score against 500 random probes

Question: And the binding signal [10]?
Answer: 6.76 PBM z-score against 500 random probes

Question: What about the binding signal [11] of the same binder?
Answer: 7.1 PBM z-score against 500 random probes

B6: NRC3_wobSeed97_DR4_A17T_o1 (dsDNA)
DNA 1: GCCAAACTAGGTCACGTAAGGTCAAAGTCGAATGACGCGATTGACAGCGTAGAATGAAGG
DNA 2: CCTTCATTCTACGCTGTCAATCGCGTCATTCGACTTTGACCTTACGTGACCTAGTTTGGC
Question: For B6, which binding signal [12] is on record?
Answer: 5.77 PBM z-score against 500 random probes

B7: NRC3_wobSeed106_DR4_G15T_o1 (dsDNA)
DNA 1: GCCTCGAAAGGTCGTTTGAGGTGAGTATACGGATAAGCGATTGACAGCGTAGAATGAAGG
DNA 2: CCTTCATTCTACGCTGTCAATCGCTTATCCGTATACTCACCTCAAACGACCTTTCGAGGC
Question: B7 was tested. Which binding signal [12] did it give?
Answer: 5.63 PBM z-score against 500 random probes

B8: NRC3_wobSeed109_DR4_T26A_o1 (dsDNA)
DNA 1: GCCGTCCAAGGTCATAGGAGGTCAGAGAAGACAGATGCGATTGACAGCGTAGAATGAAGG
DNA 2: CCTTCATTCTACGCTGTCAATCGCATCTGTCTTCTCTGACCTCCTATGACCTTGGACGGC
Question: For B8, which binding signal [12] is on record?
Answer: 5.62 PBM z-score against 500 random probes

B9: NRC3_wobSeed98_DR4_G15A_o1 (dsDNA)
DNA 1: GCACTAGTTGGTCAACTGAGGTCACACACAATTCGGGCGATTGACAGCGTAGAATGAAGG
DNA 2: CCTTCATTCTACGCTGTCAATCGCCCGAATTGTGTGTGACCTCAGTTGACCAACTAGTGC
Question: Which binding signal [12] does the source give for B9 here?
Answer: 5.62 PBM z-score against 500 random probes
